Laboratory results taken from patent US20090324491A1 (FORERUNNER PHARMA RESEARCH, published 2009).

B1: anti-EREG mouse monoclonal antibody EP20 (B2#30) (antibody, mouse IgG1, V domains shown)
VH: QVQLQQSGAELVRPGVSVKISCKGSGYTFTVYSLHWVKQSHARSLEWIGVISTYYGDAIYNQKFKGKATMTVDKSSSTAYMELARLTSEDSAIYYCAREGNGNPLDYWGQGTTLTVSS
VL: QIVLTQSPAIMSASLGERVTMTCTASSSVSSSYLHWYQQKPGSSPKLWIYSTSNLASGVPARFSGSGSGTSYSLTITNMEAEDSATYYCHQYHRSPLTFGAGTKLELK
notes: Mouse IgG1/κ hybridoma antibody
B2: anti-EREG mouse monoclonal antibody EP27 (B3#18) (antibody, mouse IgG2b, V domains shown)
VH: EDQLQQSGAELVKPGASVKLSCTASGFNIKDTYIQWVKLRPEQGLEWIGRIDPLNGNTKYVPKFQGKATITADTSSNTAYLQLSSLTSEDTAVYYCVRSGTLFDFWGQGTTLTVSS
VL: DIQMTQSPSSLSASLGGKVTITCKASQDIHKYIAWYQHKPGKGPRLLIQYTSTLQPGIPSRFSGSGSGRDYSFSISNLEPEDIATYYCLQYDNLRTFGGGTKLEIK
notes: also called B3#18_IgG2b
B3: anti-EREG mouse monoclonal antibody EP24 (B3#8) (antibody, mouse IgG1, V domains shown)
VH: QVQLKESGPGLVAPSQSLSITCTVSGFSLSSYGVHWVRQPPGKGLEWLGVIWRDGSTTYNSALKSRLSISKDGSKSQVFLKMNSLQTDDTAMYYCARNWNGLMDYWGQGTSVTVSS
VL: DIQMTQTTSSLSASLGDRVTISCRASQDISYYLNWYQQRPDGTVKLLIYYTSRLHSGVPSRFSGSGSGTESSLTISNLEQEDIATYFCQQGHTVPWTFGGGTKLEIK
notes: as for B1
B4: anti-EREG mouse monoclonal antibody EP08 (#15) (antibody, mouse IgG1, V domains shown)
VH: QVQLQQPGAELVKPGASVKLSCKASGYTFTSYWMHWVKQRPGQGLEWIGEINPYNGGTNYNEKFKSKATLTVDKSSSTAYMQLSSLTSEDSAVYYCTIWKLGTYWGQGTLVTVSA
VL: DIQMTQSPSSLSASLGERVSLTCRASQEISGYLSWLQQKPDGTIKRLIYAASTLDSGVPKRFSGSRSGSDYSLTISSLESEDFADYYCLQYASYPRTFGGGTKLEIK
notes: as for B1
B5: anti-EREG mouse monoclonal antibody EP03 (C7) (antibody, mouse IgG1, V domains shown)
VH: QVQLQQPGAELVKPGASVKLSCKASGYTFTNYWMNWVKQRPGRGLEWIGRIHPSDSETHYNQKFKNKATLTVDKSSSTAYIQLSSLTSEDSAVYYCANLYYYTMDYWGQGTSVTVSS
VL: DIQMTQSPSSLSASLGGKVTITCKASQDINKNIAWHQHKPGKGPRLLIWYTSTLQPGIPSRFSGSGSGRDYSFSISNLEPEDIATYYCLQYDNLPYTFGSGTKLEIK
notes: as for B1
B6: anti-EREG mouse monoclonal antibody EP29 (B3#41) (antibody, mouse IgG1, V domains shown)
VH: EVQLQQSGTVLARPGASVKMSCKASGYTFTSYWMHWVKQRPGQGLEWIGAIYPGNSDSYNQKFKGKAKLTAVTSTSTAYMELSSLTNEDSAVYYCTSVMAYWGQGTSVTVSS
VL: DIQMTQSPSSLSASLGERVSLTCRASQDIGNSLNWLQQEPDGTIKRLIYATSNLDSGVSKRFSGSRSGSDYSLTISSLESEDFVDYYCLQYASSPWTFGGGTKLEIK
notes: as for B1

biological target: T1, soluble human EREG fragment (EGF domain; 63Val to 108Leu) comprising a mature structure, R&D Systems cat. no. … (human, UniProt O14944 63-108); assay: ELISA, EREG fragment immobilized on immuno plate
T1 construct: Bought protein; also called soluble EREG; recombinant human EREG
Procedure: (§1) The binding towards partial fragments of the extracellular domain of human EREG was analyzed to determine antibody epitope. The N-terminal partial sequence fragment of ²⁹Ala to ⁶⁹Ser of human EREG of SEQ ID NO: 21 was expressed as a GST fusion protein and purified to homogeneity. The sequence of the obtained recombinant protein is shown in SEQ ID NO: 172. A soluble human EREG fragment (EGF domain; corresponding to ⁶³Val to ¹⁰⁸Leu of SEQ ID NO: 21) comprising a mature structure was purchased from R&D Systems (cat. no. 1195-EP/CF). Fragments of the EREG protein were immobilized onto an immuno plate, and the binding of the antibodies was examined by ELISA. Most of the antibodies bound to the soluble EREG fragment that comprises the EGF domain (indicated as “ereg” in Table 3). EP25 and EP32 bound to the N-terminal fragment (“Nterm”). All of the isolated antibodies bound to either one of the peptide fragments, and none of the antibodies recognized the sequence beyond residue 109.

T1 sequence (O14944 63-108): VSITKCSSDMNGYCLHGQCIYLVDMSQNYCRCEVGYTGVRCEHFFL

Binding result, binds:
B1
B2
B3
B4
B5

biological target: T1, soluble human EREG fragment (EGF …); assay: ELISA, EREG fragment immobilized on immuno plate; note: binds, but with low reactivity
Procedure: as §1

Binding result, binds:
B6
